Reference: US20190345535A1

Tests used:
Experiment in all cases: cell-based or functional assay
[1] = target: GFP^2-Pflu3-RLuc2 fusion protein (Pflu sensor 3)
[2] = target: GFP^2-plas1-RLuc2 fusion protein (BRET^2 plasmin sensor)
[3] = target: GFP^2-Pflu2-RLuc2 fusion protein (Pflu sensor 2)
[4] = target: GFP^2-Pflu1-RLuc2 fusion protein (Pflu sensor 1)
[5] = target: GFP^2-Pflu-H3-RLuc2 fusion protein

Chain of bovine plasmin (Sigma) (P06868 104-812 limits assumed): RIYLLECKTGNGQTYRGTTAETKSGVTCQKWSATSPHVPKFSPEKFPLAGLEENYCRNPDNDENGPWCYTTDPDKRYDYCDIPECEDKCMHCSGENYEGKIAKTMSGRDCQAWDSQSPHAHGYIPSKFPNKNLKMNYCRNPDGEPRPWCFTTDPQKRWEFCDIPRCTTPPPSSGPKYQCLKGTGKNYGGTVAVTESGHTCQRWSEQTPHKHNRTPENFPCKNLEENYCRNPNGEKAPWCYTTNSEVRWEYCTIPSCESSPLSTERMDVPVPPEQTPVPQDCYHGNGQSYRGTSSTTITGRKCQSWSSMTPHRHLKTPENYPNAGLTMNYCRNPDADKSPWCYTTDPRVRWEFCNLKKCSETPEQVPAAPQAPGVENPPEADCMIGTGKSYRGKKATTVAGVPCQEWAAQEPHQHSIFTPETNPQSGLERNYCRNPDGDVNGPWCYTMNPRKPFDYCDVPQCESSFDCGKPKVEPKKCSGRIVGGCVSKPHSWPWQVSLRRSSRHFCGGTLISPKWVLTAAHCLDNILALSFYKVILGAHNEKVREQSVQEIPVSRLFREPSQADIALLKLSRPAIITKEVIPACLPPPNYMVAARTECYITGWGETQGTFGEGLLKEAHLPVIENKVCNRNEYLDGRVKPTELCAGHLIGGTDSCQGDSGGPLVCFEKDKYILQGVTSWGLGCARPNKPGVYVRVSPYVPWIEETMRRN
Chain of human plasmin (Sigma) (P00747 97-810 limits assumed): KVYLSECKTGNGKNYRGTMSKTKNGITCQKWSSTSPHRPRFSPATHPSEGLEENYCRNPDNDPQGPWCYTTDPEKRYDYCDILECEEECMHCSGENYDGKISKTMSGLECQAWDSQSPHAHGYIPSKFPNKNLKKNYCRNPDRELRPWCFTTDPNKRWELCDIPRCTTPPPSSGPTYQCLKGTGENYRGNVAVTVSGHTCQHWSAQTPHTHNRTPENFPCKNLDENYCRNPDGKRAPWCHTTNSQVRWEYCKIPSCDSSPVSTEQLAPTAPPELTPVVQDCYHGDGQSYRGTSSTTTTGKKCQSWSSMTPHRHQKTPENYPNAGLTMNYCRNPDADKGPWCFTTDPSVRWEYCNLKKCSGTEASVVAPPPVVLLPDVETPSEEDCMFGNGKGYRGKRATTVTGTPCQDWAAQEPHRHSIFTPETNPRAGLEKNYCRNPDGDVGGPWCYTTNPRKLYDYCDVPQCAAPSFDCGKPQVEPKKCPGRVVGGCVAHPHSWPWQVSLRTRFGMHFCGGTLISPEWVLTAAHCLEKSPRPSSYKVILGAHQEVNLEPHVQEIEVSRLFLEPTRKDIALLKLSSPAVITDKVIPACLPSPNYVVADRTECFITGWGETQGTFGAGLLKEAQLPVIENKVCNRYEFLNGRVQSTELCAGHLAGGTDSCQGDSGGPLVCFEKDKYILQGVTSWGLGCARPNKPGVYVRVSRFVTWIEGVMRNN

EC50, BRET^2 response, 50% full fat UHT milk [2] | EC50, BRET^2 response, 50% full fat UHT milk [4] | Substance | EC50, BRET^2 response, 50% full fat UHT milk [1] | EC50, BRET^2 response, 50% full fat UHT milk [3] | EC50, BRET^2 response, raw milk [4] | EC50, BRET^2 response, raw milk, protease concentration by BSA standard [4] | EC50, BRET^2 response, raw milk [5] | other results
5.6 nM | 124 nM | human plasmin (Sigma) (from UniProt P00747 97-810) (enzyme) | 1280 nM | 926 nM | – | – | – | EC50, BRET^2 response, heat treated raw milk, one-step pre-treatment protocol [2]: 24.2 nM; EC50, BRET^2 response, heat treated raw milk, one-step pre-treatment with low power sonication [2]: 29.3 nM; EC50, BRET^2 response, heat treated raw milk, pre-treatment protocol of Rauh et al. (2014) [2]: 19.5 nM; EC50, BRET^2 response, heat treated raw milk, two-step pre-treatment protocol [2]: 16 nM
– | – | crude bacterial protease from Pseudomonas fluorescens strain 117 (enzyme) | – | – | 0.2 nM | 2.6 nM | – | –
108 nM | 169 nM | bovine plasmin (Sigma) (from UniProt P06868 97-805) (enzyme) | – | – | – | – | 174 nM | –

Substance | EC50, BRET^2 response, 50% full fat UHT milk [2] | EC50, BRET^2 response, 50% full fat UHT milk [4] | EC50, BRET^2 response, 50% full fat UHT milk [1] | EC50, BRET^2 response, 50% full fat UHT milk [3] | EC50, BRET^2 response, raw milk [4] | EC50, BRET^2 response, raw milk, protease concentration by BSA standard [4] | EC50, BRET^2 response, raw milk [5] | other results
crude bacterial protease from Pseudomonas fluorescens strain 65 (enzyme) | 50 nM | 0.7 nM | 2.3 nM | 2.6 nM | 0.14 nM | 1.63 nM | 0.5 nM | EC50, BRET^2 response, 50% full fat UHT milk, protease concentration by BSA standard [1]: 26.4 nM; EC50, BRET^2 response, 50% full fat UHT milk, protease concentration by BSA standard [2]: 580 nM; EC50, BRET^2 response, raw milk [2]: 1.4 nM; EC50, BRET^2 response, raw milk, protease concentration by BSA standard [2]: 16.2 nM; EC50, BRET^2 response, raw milk, protease concentration by BSA standard [5]: 5.4 nM; EC50, BRET^2 response, 50% full fat UHT milk, protease concentration by BSA standard [3]: 30.4 nM; EC50, BRET^2 response, 50% full fat UHT milk, protease concentration by BSA standard [4]: 8.2 nM; EC50, BRET^2 response, 50% raw milk, no pre-treatment, 10 mins. incubation [4]: 0.14 nM; EC50, BRET^2 response, 50% raw milk, no pre-treatment, 2 hrs incubation [4]: 0.0339 nM; EC50, BRET^2 response, 50% raw milk, pre-treatment, 10 mins. incubation [4]: 0.353 nM; EC50, BRET^2 response, 50% raw milk, pre-treatment, 2 hrs incubation [4]: 0.1 nM
